Data as given in patent US20040171105.
Numbering of substitutions follows the chain as printed.

Experiments:
[1] = target: GST fusion form of full-length human cIAP1, Q13490
[2] = target: T1, Livin β (human, N-terminal hexa-His tagged), Q96CA5
T1 chain: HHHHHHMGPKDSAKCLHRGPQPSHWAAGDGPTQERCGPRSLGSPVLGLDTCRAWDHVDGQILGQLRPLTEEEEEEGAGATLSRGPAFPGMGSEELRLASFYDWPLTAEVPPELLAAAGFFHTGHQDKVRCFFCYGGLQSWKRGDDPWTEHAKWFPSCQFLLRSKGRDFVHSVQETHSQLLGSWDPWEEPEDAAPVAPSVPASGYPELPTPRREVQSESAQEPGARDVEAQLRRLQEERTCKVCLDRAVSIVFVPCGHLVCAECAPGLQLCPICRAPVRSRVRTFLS

[3] = target: mutant cIAP1 (recombinant cIAP1 mutated at the three preferred Omi cleavage sites, GST fusion) [GST: P08515]
[4] = target: T2, GST fusion form of full-length Drosophila DIAP1, Q24306
T2 chain: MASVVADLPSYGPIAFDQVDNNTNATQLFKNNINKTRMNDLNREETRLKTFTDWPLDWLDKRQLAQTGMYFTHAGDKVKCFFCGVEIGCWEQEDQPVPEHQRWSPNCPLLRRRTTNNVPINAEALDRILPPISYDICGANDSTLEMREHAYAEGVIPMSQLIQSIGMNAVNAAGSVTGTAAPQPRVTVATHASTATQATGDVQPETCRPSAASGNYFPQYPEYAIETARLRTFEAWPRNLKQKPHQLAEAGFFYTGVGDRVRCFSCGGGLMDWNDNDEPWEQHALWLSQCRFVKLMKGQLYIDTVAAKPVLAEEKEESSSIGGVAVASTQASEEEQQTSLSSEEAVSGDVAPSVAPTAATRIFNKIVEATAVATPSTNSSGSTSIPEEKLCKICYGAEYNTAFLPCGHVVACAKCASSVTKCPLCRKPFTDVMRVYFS

[5] = target: GST fusion form of full-length human XIAP, P98170
Chain of GST fusion form of full-length human XIAP, P98170 (P98170 whole entry, the tested form may be a part): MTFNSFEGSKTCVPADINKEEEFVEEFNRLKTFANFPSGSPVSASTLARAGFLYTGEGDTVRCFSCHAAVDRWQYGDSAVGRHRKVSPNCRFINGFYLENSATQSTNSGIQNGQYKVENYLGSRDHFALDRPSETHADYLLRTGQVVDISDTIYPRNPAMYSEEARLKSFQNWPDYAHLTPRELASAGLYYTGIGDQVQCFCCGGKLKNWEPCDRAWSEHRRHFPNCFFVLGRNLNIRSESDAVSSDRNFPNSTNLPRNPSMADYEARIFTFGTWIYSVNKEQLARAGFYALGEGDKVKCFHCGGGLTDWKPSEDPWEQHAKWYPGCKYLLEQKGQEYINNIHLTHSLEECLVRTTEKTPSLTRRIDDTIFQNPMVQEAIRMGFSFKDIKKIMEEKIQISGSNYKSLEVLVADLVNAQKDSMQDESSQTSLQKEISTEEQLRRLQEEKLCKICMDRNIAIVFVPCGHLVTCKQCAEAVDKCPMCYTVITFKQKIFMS

[6] = target: T3, Livin α (human, N-terminal hexa-His tagged), Q96CA5
T3 chain: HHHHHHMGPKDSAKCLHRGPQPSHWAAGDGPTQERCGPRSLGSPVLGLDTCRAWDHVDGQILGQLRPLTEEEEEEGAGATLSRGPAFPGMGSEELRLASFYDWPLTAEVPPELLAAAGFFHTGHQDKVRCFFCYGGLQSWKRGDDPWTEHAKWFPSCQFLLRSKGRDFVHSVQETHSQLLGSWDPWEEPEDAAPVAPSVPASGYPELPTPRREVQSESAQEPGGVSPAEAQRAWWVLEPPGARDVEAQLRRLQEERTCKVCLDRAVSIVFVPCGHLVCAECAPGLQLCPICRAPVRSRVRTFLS

[7] = target: T4, Smac (purified recombinant), Q9NR28
T4 chain: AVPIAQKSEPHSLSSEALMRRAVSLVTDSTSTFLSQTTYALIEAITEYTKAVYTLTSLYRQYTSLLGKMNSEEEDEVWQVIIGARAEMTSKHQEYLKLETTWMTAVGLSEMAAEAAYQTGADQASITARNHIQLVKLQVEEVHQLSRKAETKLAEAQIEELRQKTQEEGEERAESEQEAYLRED

[8] = target: GST fusion form of full-length human cIAP2, Q13489
Chain of GST fusion form of full-length human cIAP2, Q13489 (Q13489 whole entry, the tested form may be a part): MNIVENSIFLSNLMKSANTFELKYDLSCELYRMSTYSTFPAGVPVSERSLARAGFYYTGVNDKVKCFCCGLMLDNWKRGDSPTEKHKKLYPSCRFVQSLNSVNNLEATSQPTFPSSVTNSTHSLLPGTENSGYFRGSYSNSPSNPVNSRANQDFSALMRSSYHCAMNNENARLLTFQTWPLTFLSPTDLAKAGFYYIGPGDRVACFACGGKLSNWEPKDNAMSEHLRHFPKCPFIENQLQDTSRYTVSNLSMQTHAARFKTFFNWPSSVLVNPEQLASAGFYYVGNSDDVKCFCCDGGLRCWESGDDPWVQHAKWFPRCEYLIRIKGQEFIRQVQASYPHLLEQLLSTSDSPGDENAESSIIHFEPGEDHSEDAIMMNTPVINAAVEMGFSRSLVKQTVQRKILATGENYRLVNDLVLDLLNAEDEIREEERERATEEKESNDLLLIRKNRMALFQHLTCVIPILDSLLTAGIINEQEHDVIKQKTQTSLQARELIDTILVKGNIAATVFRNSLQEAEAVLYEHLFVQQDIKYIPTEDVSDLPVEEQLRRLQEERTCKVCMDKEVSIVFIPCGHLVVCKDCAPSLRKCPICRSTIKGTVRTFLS

Chain of GST fusion form of full-length human cIAP1, Q13490 (Q13490 whole entry, the tested form may be a part): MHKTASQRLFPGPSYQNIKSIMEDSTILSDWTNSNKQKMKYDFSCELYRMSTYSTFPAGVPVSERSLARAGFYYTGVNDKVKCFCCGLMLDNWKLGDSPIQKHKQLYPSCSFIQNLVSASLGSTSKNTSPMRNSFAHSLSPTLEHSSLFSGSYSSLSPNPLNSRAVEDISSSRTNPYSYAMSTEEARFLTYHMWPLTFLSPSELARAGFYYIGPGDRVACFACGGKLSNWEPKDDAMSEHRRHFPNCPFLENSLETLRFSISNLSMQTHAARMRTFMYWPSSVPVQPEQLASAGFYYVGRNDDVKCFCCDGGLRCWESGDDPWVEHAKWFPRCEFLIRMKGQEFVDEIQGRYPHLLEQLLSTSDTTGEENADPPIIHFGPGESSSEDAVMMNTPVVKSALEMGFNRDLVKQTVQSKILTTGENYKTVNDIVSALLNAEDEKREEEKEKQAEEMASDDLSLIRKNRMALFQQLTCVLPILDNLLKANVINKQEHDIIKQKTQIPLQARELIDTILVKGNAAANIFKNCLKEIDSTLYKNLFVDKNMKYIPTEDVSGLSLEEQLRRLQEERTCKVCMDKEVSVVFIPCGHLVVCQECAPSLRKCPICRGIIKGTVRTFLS
Chain of Survivin, O15392 (O15392 whole entry, looked up): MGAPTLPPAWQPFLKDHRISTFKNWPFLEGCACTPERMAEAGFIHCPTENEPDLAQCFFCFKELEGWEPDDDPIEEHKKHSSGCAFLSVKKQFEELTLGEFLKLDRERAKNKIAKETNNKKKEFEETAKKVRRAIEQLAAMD

B1: endogenous caspase-9 of HeLa S100 extract, activated by dATP and cytochrome c (protein)
chain: MDEADRRLLRRCRLRLVEELQVDQLWDALLSRELFRPHMIEDIQRAGSGSRRDQARQLIIDLETRGSQALPLFISCLEDTGQDMLASFLRTNRQAAKLSKPTLENLTPVVLRPEIRKPEVLRPETPRPVDIGSGGFGDVGALESLRGNADLAYILSMEPCGHCLIINNVNFCRESGLRTRTGSNIDCEKLRRRFSSLHFMVEVKGDLTAKKMVLALLELAQQDHGALDCCVVVILSHGCQASHLQFPGAVYGTDGCPVSVEKIVNIFNGTSCPSLGGKPKLFFIQACGGEQKDHGFEVASTSPEDESPGSNPEPDATPFQEGLRTFDQLDAISSLPTPSDIFVSYSTFPGFVSWRDPKSGSWYVETLDDIFEQWAHSEDLQSLLLRVANAVSVKGIYKQMPGCFNFLRKKLFFKTS
B1 was tested, and the “caspase activity in HeLa extracts (cleavage of 35S-labeled procaspase-3)” value [1] was “Caspase activity was completely inhibited by 250 nM of cIAP1”.

B2: OmiΔPDZ (Omi with the PDZ domain deleted, C-terminal hexa-His tagged) (protein)
chain: AVPSPPPASPRSQYNFIADVVEKTAPAVVYIEILDRHPFLGREVPISNGSGFVVAADGLIVTNAHVVADRRRVRVRLLSGDTYEAVVTAVDPVADIATLRIQTKEPLPTLPLGRSADVRQGEFVVAMGSPFALQNTITSGIVSSAQRPARDLGLPQTNVEYIQTDAAIDFGNSGGPLVNLDGEVIGVNTMKVTAGISFAIPSDRLREFLHRGEKKNSSSGISGSQHHHHHH
For B2, the “cleavage of cIAP1 in vitro (SDS-PAGE, silver staining)” value [1] was “The Omi?PDZ at 2.5 nM cleaved the full-length cIAP1 molecules into smaller fragments, whereas the Omi WT enzyme, at the same concentration, still left some uncleaved full-length cIAP1 molecules”.

B3: OmiΔ8 (Omi without the AVPS tetrapeptide, C-terminal hexa-His tagged) (protein)
chain: PPPASPRSQYNFIADVVEKTAPAVVYIEILDRHPFLGREVPISNGSGFVVAADGLIVTNAHVVADRRRVRVRLLSGDTYEAVVTAVDPVADIATLRIQTKEPLPTLPLGRSADVRQGEFVVAMGSPFALQNTITSGIVSSAQRPARDLGLPQTNVEYIQTDAAIDFGNSGGPLVNLDGEVIGVNTMKVTAGISFAIPSDRLREFLHRGEKKNSSSGISGSQRRYIGVMMLTLSPSILAELQLREPSFPDVQHGVLIHKVILGSPAHRAGLRPGDVILAIGEQMVQNAEDVYEAVRTQSQLAVQIRRGRETLTLYVTPEVTEHHHHHH
With B3 the “cleavage of cIAP1 in vitro (SDS-PAGE, silver staining)” value [1] was “A concentration (25 nM), 10-fold higher than the wild-type, was required to cleave IAP” and the “proteolytic efficiency against Omi WT” value [1] was “The proteolytic efficiency of Omi?8 was, therefore, 10-fold lower than that of Omi WT regarding cIAP1 cleavage”.

B4: Omi WT (wild-type mature Omi/HtrA2, C-terminal hexa-His tagged, recombinant from E. coli) (protein)
chain: AVPSPPPASPRSQYNFIADVVEKTAPAVVYIEILDRHPFLGREVPISNGSGFVVAADGLIVTNAHVVADRRRVRVRLLSGDTYEAVVTAVDPVADIATLRIQTKEPLPTLPLGRSADVRQGEFVVAMGSPFALQNTITSGIVSSAQRPARDLGLPQTNVEYIQTDAAIDFGNSGGPLVNLDGEVIGVNTMKVTAGISFAIPSDRLREFLHRGEKKNSSSGISGSQRRYIGVMMLTLSPSILAELQLREPSFPDVQHGVLIHKVILGSPAHRAGLRPGDVILAIGEQMVQNAEDVYEAVRTQSQLAVQIRRGRETLTLYVTPEVTEHHHHHH
For B4, the “cleavage of Livin in vitro (Western blot, anti-Livin)” value [2] was “Omi WT cleaved Livin α and Livin β”, the “IAP cleavage and caspase reactivation in HeLa S100 extracts” value [3] was “Omi at 75 or 10 nM resulted in similar amount IAP cleavage and caspase reactivation for mutant and wild-type cIAP1, respectively” and the “resistance to Omi protease against wild-type cIAP1” value [3] was “mutant cIAP1 is ˜7.5-fold more resistant to Omi protease”. The “cleavage of IAP in vitro” value [4] was “As shown in FIG. 1A, Omi WT cleaved IAP proteins”, the “cleavage of IAP in vitro” value [5] was “the wild-type Omi cleaved various forms of IAP proteins, including cIAP1, cIAP2, XIAP, Livin α and Livin β” and the “IAP cleavage and caspase reactivation in HeLa S100 extracts” value [1] was “Omi at 75 or 10 nM resulted in similar amount IAP cleavage and caspase reactivation for mutant and wild-type cIAP1, respectively”. For the same protein, the “cleavage of cIAP1 in vitro (SDS-PAGE, silver staining)” value [1] was “Wild-type Omi (Omi WT) protein at 2.5 nM (nano Molar) almost completely cleaved 50 nM cIAP1”, the “cleavage of Livin in vitro (Western blot, anti-Livin)” value [6] was “Omi WT cleaved Livin α and Livin β” and the “cleavage in vitro (Western blot, anti-Survivin; 25 nM Survivin, 150 nM Omi WT)” value (Survivin, O15392) was “This cleavage activity, however, was absent for Survivin”. The “proteolytic processing of Smac by Omi” value [7] was “Smac, therefore, was not cleavable by Omi” and the “cleavage of IAP in vitro” value [8] was “the wild-type Omi cleaved various forms of IAP proteins, including cIAP1, cIAP2, XIAP, Livin α and Livin β”.

B5: Omi SA (protease dead mutant Omi S306→Ala, C-terminal hexa-His tagged) (protein)
chain: B4 chain with S173A
B5 was tested, and the “cleavage of cIAP1 in vitro (Western blot, anti-GST)” value [1] was “Omi WT cleaved the cIAP1, but the Omi SA did not”.
